Starred links: 1 amine or outer side, 2 acyl side, 3 side chain; linkers in the order of their positions; H or OH if unused. Non-standard residues stand in square brackets, D forms with d. Residues, ends and D or L forms follow the SMILES beside them. Primed or numbered codes have the meaning given here. No end group written: not given here. *: point of attachment. GlyA = glycolic acid (-OCH2CO2H), esterified to the C-terminal carboxyl, O=C(O)CO*; GlyA″ = glycolic acid, ester to the C-terminal carboxyl, -OCH2CO2H, O=C(O)CO*; LacA″ = lactic acid residue, ester -OCH(CH3)CO2H at the C-terminus; Cys(S-allyl) = S-allylcysteine, C=CCSC[C@H](N[*:1])C(=O)[*:2]; Cys(S-Me) = S-methylcysteine, CSC[C@H](N[*:1])C(=O)[*:2]; γGlu = O=C(O)[C@H](CCC(=O)[*:2])N[*:1]; Tle = CC(C)(C)[C@H](N)C(=O)O; Orn = NCCC[C@H](N)C(=O)O; Abu = CC[C@H](N)C(=O)O; LacA = lactic acid
How the values were obtained:
[1] = biological target: T1, human calcium receptor (Homo sapiens, UniProt P41180); assay: Ca ion concentration-dependent Cl ionic current measurement in Xenopus laevis oocytes expressing the calcium receptor; assay type: cell-based; conditions: for Activity (lowest concentration at which current was detected): peptide added at 1,000, 300, 100, 30, 10, 3, 1, 0.3 and 0.1 μM
T1 construct: expressed in transfected cells; host or cells: Xenopus laevis oocytes injected with cRNA
T1 sequence (P41180 20-1078): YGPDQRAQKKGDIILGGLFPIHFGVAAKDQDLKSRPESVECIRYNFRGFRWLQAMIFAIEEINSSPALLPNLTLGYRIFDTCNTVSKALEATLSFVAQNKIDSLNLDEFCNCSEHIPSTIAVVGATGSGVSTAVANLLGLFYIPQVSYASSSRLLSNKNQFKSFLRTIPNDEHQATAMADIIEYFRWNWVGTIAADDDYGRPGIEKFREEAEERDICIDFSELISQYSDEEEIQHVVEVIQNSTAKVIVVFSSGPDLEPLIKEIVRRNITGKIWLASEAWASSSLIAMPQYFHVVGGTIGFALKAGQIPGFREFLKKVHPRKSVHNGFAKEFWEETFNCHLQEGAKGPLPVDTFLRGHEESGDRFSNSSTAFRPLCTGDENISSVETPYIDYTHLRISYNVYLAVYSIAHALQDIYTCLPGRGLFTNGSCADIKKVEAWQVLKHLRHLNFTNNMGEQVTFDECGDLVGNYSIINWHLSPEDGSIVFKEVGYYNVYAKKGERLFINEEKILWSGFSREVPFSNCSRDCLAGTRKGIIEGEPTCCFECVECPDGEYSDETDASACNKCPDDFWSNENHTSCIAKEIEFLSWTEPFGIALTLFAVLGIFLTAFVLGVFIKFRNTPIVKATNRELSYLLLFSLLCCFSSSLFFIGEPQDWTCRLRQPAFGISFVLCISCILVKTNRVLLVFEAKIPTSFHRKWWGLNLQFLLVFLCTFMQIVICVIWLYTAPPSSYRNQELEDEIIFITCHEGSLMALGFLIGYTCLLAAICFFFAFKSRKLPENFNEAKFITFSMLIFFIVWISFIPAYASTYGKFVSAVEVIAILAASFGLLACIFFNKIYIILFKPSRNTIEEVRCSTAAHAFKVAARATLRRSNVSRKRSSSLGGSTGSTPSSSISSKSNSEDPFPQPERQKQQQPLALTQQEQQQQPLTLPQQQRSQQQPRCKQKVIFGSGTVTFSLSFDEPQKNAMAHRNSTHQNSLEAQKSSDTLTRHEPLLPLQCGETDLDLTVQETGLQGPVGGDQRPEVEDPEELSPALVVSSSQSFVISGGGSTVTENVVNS
Protocol: For evaluation of the calcium receptor-activating action, a Ca ion concentration-dependent Cl ionic current measuring method using a Xenopus laevis oocyte expression system was used. If each activator is added to Xenopus laevis oocytes expressing the calcium receptor, intracellular Ca ions increase. Then, the Ca ion concentration-dependent Cl channel opens, and the intracellular current value changes as an ionic current. By measuring the change in the intracellular current value, whether the calcium receptor-activating action is present or not can be determined.
Specifically, the abdomen of Xenopus laevis was opened, and an egg batch was taken out and then treated with a 1% collagenase solution at 20° C. for 2 hours to obtain individual oocytes. Into the oocytes, 50 nl of 1 μg/μl receptor cRNA or 50 nl of sterilized water per oocyte were injected by using a micro glass capillary, and the oocytes were cultured at 18° C. for 2 to 3 days. For the culture, a solution obtained by adding 2 mM pyruvic acid, 10 U/ml penicillin, and 10 μg/ml streptomycin to the solution in Example 2 was used. After the culture, a test solution was added to the oocytes injected with cRNA or sterilized water. Electrophysiological measurement was performed by using an amplifier Geneclamp 500 (manufactured by Axon) and recording software AxoScope 9.0 (manufactured by Axon). The oocytes were membrane potential-clamped at −70 mV by the double electrode potential clamp method, and the intracellular current was measured via the Ca ion concentration-dependent Cl ion channel. The maximum value of the intracellular current was defined as the response current value. […]
The calcium receptor-activating action of L-amino acids was evaluated by using the method described in Example 13. That is, oocytes injected with cRNA of the calcium receptor or sterilized water were prepared, and membrane potential-clamped at −70 mV by the double electrode potential clamp method. To the potential-clamped oocytes, alanine (10 mM), arginine (10 mM), asparagine (10 mM), aspartic acid (10 mM), cysteine (10 mM), glutamine (10 mM), glutamic acid (10 mM), glycine (10 mM), histidine (10 mM), isoleucine (10 mM), leucine (10 mM), lysine (10 mM), methionine (10 mM), phenylalanine (10 mM), proline (10 mM), serine (10 mM), threonine (10 mM), tryptophan (10 mM), tyrosine (10 mM), valine (10 mM), ornithine (10 mM), taurine (10 mM), or hydroxyproline (10 mM) was added, and Ca ion concentration-dependent Cl response current was measured. […] As for the above-described amino acids, the activating action is reported in Proc. Natl. Acad. Sci. USA, Apr. 25, 2000, 97(9): 4814-9.
The calcium receptor-activating action of D-cysteine was evaluated by using the method described in Example 13. That is, oocytes injected with cRNA of the calcium receptor or sterilized water were prepared, and membrane potential-clamped at −70 mV by the double electrode potential clamp method. To the potential-clamped oocytes, D-cysteine (10 mM), L-cysteine (10 mM), D-tryptophan (10 mM), or L-tryptophan (10 mM) was added, and Ca ion concentration-dependent Cl response current was measured.
The calcium receptor-activating action of a peptide was evaluated by using the method described in Example 13. That is, oocytes injected with cRNA of the calcium receptor or sterilized water were prepared, and membrane potential-clamped at −70 mV by the double electrode potential clamp method.

[2] = system: rat large intestine loop; assay: Fluid absorption in rat large intestine loop method (PGE2-stimulated); assay type: in vivo, rats; conditions: injected into loop 30 minutes after PGE2 i.p.; measured after 1 hour
Protocol: The cecum and large intestine were extirpated from the abdomen of each of male SD (IGS) rats under pentobarbital anesthesia, and the site 5 cm away from the area just under the cecum was ligated to form a large intestine loop Immediately after the loop had been formed, PGE2 (4 μg/ml/kg, SIGMA) was intraperitoneally administered, and after 30 minutes, a medicament, which had been dissolved in 2 ml of Tyrode's solution (NaCl: 136.9 mM, KCl: 2.7 mM, CaCl2.2H2O: 1.8 mM, MgCl2.6H2O: 1.04 mM, NaH2PO4.2H2O: 0.04 mM, NaH2PO4.2H2O: 0.04 mM, glucose: 5.55 mM, NaHCO3: 11.9 mM), was injected into the prepared loop (the medicament solution was adjusted so that the pH would be 6.5 to 7.5). As a control, Tyrode's solution free of any medicament (vehicle) was administered. After 1 hour, the loop weight, the loop weight after solution removal, and the loop area were measured to calculate a solution weight per unit area remaining in the loop.
The remaining solution amount per unit area was calculated with the following equation:
Remaining solution amount per unit area(g/cm^2)=(Loop weight−Loop weight after solution removal)/Loop area.
The fluid absorption was evaluated by calculating an inhibitory rate from the following equation:
Inhibitory rate(%)=100−(Remaining solution amount per unit area under drug administration−Remaining solution amount per unit area in base(average))/(Remaining solution amount per unit area under vehicle administration(average)−Remaining solution amount per unit area in base(average))×100.
(Base=case where no stimulation is given (no treatment with PGE2))

[3] = biological target: T2, human calcium receptor (human, UniProt P41180 20-1078); assay: cell-based or functional assay
T2 sequence (looked up): T1 sequence (P41180 20-1078)

[4] = L-amino acid added at 10 mM, oocytes clamped at -70 mV

Row | Molecule | Activity (lowest concentration at which current was detected) [1] | also measured
1 | N[C@H](CS)C(=O)O [D-cysteine, reference compound] |  | calcium receptor-activating action (Ca ion concentration-dependent Cl response current) ([1]; D-amino acid added at 10 mM, oocytes clamped at -70 mV): definite calcium receptor-activating action
2 | N[C@@H](CS)C(=O)O [cysteine, reference compound] |  | calcium receptor-activating action (Ca ion concentration-dependent Cl response current) [1, 4]: definite calcium receptor-activating action
3 | N[C@@H](Cc1c[nH]cn1)C(=O)O [histidine, reference compound] |  | calcium receptor-activating action (Ca ion concentration-dependent Cl response current) [1, 4]: definite calcium receptor-activating action
4 | N[C@@H](Cc1ccccc1)C(=O)O [phenylalanine, reference compound] |  | calcium receptor-activating action (Ca ion concentration-dependent Cl response current) [1, 4]: definite calcium receptor-activating action
5 | N[C@@H](Cc1c[nH]c2ccccc12)C(=O)O [tryptophan, reference compound] |  | calcium receptor-activating action (Ca ion concentration-dependent Cl response current) [1, 4]: definite calcium receptor-activating action
6 | N[C@@H](Cc1ccc(O)cc1)C(=O)O [tyrosine, reference compound] |  | calcium receptor-activating action (Ca ion concentration-dependent Cl response current) [1, 4]: definite calcium receptor-activating action
7 | N[C@@H](CCC(=O)N[C@@H](CSN=O)C(=O)NCC(=O)O)C(=O)O [γ-Glu-Cys(SNO)-Gly] |  | calcium receptor-activating action (Ca ion concentration-dependent Cl response current) ([1]; peptide added at 50 μM): definite calcium receptor-activating action
8 | CC(C)(C)[C@H](NC(=O)CC[C@H](N)C(=O)O)C(=O)NCC(=O)O [γ-Glu-t-Leu-Gly] (γGlu-[Tle]-Gly-OH) |  | fluid absorption (inhibitory rate from remaining solution amount per unit area) [2]: promoted fluid absorption
9 | γ-Glu-Abu-Gly ([γGlu]-[Abu]-Gly) | 3 µM | 
10 | γ-Glu-Cys(S-Me)-Gly ([γGlu]-[Cys(S-Me)]-Gly) | 3 µM | 
11 | γ-Glu-Cys(S-allyl)-Gly ([γGlu]-[Cys(S-allyl)]-Gly) | 100 µM | 
12 | γ-Glu-Gly-Gly ([γGlu]-Gly-Gly) | 30 µM | 
13 | γ-Glu-Orn ([γGlu]-[Orn]) |  | calcium receptor-activating action (Ca ion concentration-dependent Cl response current) ([1]; peptide added at 500 μM): definite calcium receptor-activating action
14 | γ-Glu-Ser-Gly ([γGlu]-Ser-Gly) | 30 µM | 
15 | γ-Glu-Tau ([γGlu]-[Tau]) | 300 µM | 
16 | γ-Glu-Val-Arg ([γGlu]-Val-Arg) | 1,000 μM | 
17 | γ-Glu-Val-Asn ([γGlu]-Val-Asn) | 30 µM | 
18 | γ-Glu-Val-Asp | 1,000 μM | 
19 | γ-Glu-Val-Cys ([γGlu]-Val-Cys) | 10 µM | 

Row | Molecule | Activity (lowest concentration at which current was detected) [1] | also measured
20 | γ-Glu-Val-Gln ([γGlu]-Val-Gln) | 10 µM | 
21 | γ-Glu-Val-Glu ([γGlu]-Val-Glu) | 1,000 μM | 
22 | γ-Glu-Val-His ([γGlu]-Val-His) | 100 µM | 
23 | γ-Glu-Val-Lys ([γGlu]-Val-Lys) | 1,000 μM | 
24 | γ-Glu-Val-Met ([γGlu]-Val-Met) | 1,000 μM | 
25 | γ-Glu-Val-Orn ([γGlu]-Val-[Orn]) | 100 µM | 
26 | γ-Glu-Val-Phe ([γGlu]-Val-Phe) | 30 µM | 
27 | γ-Glu-Val-Pro ([γGlu]-Val-Pro) | 30 µM | 
28 | γ-Glu-Val-Ser ([γGlu]-Val-Ser) | 30 µM | 
29 | γ-Glu-Val-Thr ([γGlu]-Val-Thr) | 1,000 μM | 
30 | γ-Glu-Val-Val ([γGlu]-Val-Val) | 1,000 μM | 
31 | γ-Glu-t-Leu ([γGlu]-[Tle]) | 100 µM | 
32 | γ-Glu-γ-Glu-Val ([γGlu]-[γGlu]-Val) | 1,000 μM | 
33 | [γGlu]-Val-LacA [γ-Glu-Val-LacA] |  | EC50, calcium imaging (Calcium 3 assay kit, FLEXSTATION) in HEK 293 cells expressing human CaSR [3]: 57 nM
34 | [γGlu]-Val-GlyA [γ-Glu-Val-GlyA] |  | EC50, calcium imaging (Calcium 3 assay kit, FLEXSTATION) in HEK 293 cells expressing human CaSR [3]: 140 nM
35 | [γGlu]-[Abu]-{LacA″} [γ-Glu-Abu-LacA] |  | EC50, calcium imaging (Calcium 3 assay kit, FLEXSTATION) in HEK 293 cells expressing human CaSR [3]: 102 nM
36 | [γGlu]-[Tle]-{GlyA″} [γ-Glu-t-Leu-GlyA] |  | EC50, calcium imaging (Calcium 3 assay kit, FLEXSTATION) in HEK 293 cells expressing human CaSR [3]: 50 nM
37 | [γGlu]-[Tle]-{LacA″} [γ-Glu-t-Leu-LacA] |  | EC50, calcium imaging (Calcium 3 assay kit, FLEXSTATION) in HEK 293 cells expressing human CaSR [3]: 38 nM
